Laboratory results from patent US20260055368A1 (KIROMIC BIOPHARMA, published 2026).
Blank lines part the entries; values can stand above or below the molecule they belong to.

Columns and labels:
[1] = target: MSLN isoform 1 (Mesothelin canonical polypeptide) (Homo sapiens (Human)) (UniProt Q13421); assay: flow cytometry on Lenti-X 293T cells transiently expressing MSLN isoform 1 (EGFP-gated)
[2] = target: Mesothelin isoform 2 (IsoMSLN) (Homo sapiens (Human)) (UniProt Q13421); assay: flow cytometry on Lenti-X 293T cells transiently expressing MSLN isoform 2 (EGFP-gated)
Chain of Mesothelin isoform 2 (IsoMSLN) (Homo sapiens (Human)) (Q13421 37-606 limits assumed, form in doubt): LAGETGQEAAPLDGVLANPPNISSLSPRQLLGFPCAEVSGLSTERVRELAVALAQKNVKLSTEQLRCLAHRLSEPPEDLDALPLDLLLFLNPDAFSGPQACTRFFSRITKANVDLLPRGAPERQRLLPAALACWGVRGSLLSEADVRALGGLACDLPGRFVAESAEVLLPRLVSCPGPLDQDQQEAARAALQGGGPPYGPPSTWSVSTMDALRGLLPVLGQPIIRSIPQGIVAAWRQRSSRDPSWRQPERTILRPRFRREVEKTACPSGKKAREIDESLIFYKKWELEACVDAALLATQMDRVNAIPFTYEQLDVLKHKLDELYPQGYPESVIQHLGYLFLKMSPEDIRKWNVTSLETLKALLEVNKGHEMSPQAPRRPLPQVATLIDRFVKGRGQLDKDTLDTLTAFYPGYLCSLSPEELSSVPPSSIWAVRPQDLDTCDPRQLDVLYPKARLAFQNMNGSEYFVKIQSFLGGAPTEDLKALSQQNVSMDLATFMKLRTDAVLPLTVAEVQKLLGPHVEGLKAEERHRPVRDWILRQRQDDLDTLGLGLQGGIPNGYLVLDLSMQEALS

[3] = target: MSLN isoform 1 (Mesothelin canonical polypeptide) (Homo sapiens (Human), UniProt Q13421 37-598); assay: flow cytometry on Lenti-X 293T cells transiently expressing MSLN isoform 1
Chain of MSLN isoform 1 (Mesothelin canonical polypeptide) (Q13421 other isoform, or with tags, fused parts or gaps limits assumed): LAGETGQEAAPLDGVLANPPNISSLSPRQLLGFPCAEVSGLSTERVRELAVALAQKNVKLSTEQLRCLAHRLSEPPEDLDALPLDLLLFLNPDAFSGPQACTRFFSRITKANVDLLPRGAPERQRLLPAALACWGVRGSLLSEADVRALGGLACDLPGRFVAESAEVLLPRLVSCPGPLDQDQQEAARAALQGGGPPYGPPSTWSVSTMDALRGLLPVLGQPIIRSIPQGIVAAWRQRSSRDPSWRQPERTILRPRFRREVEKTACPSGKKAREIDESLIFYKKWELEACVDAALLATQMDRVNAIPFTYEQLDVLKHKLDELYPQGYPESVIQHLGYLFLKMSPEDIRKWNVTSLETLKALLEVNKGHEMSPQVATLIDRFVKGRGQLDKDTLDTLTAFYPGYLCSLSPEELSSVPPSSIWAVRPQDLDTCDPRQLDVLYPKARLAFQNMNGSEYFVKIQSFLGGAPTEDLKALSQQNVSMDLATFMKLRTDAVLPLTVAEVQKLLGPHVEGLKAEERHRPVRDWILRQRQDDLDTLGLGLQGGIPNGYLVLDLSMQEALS
From the text: (§1) FIGS. 13A-13C show detection of cell surface expression of MSLN isoform 1 and 2 on the tumor cell surface by anti-isoMSLN-specific antibodies. FIG. 13A: the binding curve of different MSLN antibody clones in MSLN isoform 1 or isoform 2 overexpressing 293T cells. MSLN isoform 1 or 2 were transiently expressed in Lenti-X 293T cells; 48 hrs after transfection the cells were harvested and stained for different anti-MSLN antibody or mIgG1 isotype control (with different antibody concentration). MSLN-expressing cells were gated based on EGFP expression. The antibody binding MFI is plot along with the antibody concentration. FIG. 13B: flow cytometry staining of NCI H226 and Hela tumor cell lines with different anti-MSLN antibody clones. FIG. 13C: binding curve of increasing concentration of anti-IsoMSLN antibody clones to NCI H226 cells. The positive percentage of MSLN is plotted versus the antibody concentration.
(§2) Cell transfection and flow cytometry. […] 3 days after transfection, the transfected cells were harvested, counted, and wash once with FACS buffer, and resuspended in 100 μl FACS buffer containing […] human FcR blocker (BD Bioscience) per 0.1 million cells for 10 min, 4° C. […] Samples were acquired with NovoCyte 3000 and analyzed by NovoExpress (ACEA Biosciences Inc).

[4] = target: T1, Mesothelin isoform 2 (IsoMSLN) (Homo sapiens (Human), UniProt Q13421 37-598); assay: flow cytometry on Lenti-X 293T cells transiently expressing MSLN isoform 2 (EGFP-gated)
T1 construct: It was transiently expressed in Lenti-X 293T cells and is endogenous on NCI H226 cells; also called MSLN isoform 2; IsoMSLN2
T1 sequence (Q13421 37-606 limits assumed, form in doubt): as the sequence (Q13421 37-606 limits assumed, form in doubt) above
From the text: as §1, §2

Chain of MSLN isoform 1 (Mesothelin canonical polypeptide) (Homo sapiens (Human)) (Q13421 other isoform, or with tags, fused parts or gaps limits assumed): as the sequence (Q13421 other isoform, or with tags, fused parts or gaps limits assumed) above

EC50 [1]: 0.152 µg/mL | EC50 [2]: 0.106 µg/mL
Molecule: Anti-MSLN mAb clone K1 (antibody)

binding result [3]: no binding | EC50 [4]: 0.073 µg/mL
B1: 1B6 monoclonal antibody (Binding Molecule A) (antibody, V domains shown)
VH: EVKLVESGGGLVKPGGSLKLSCEASGFTFSRYAMSWVRHTPEKRLAWVASITFGGDPYYPDGLKGRFTISRDNTRNILYLQMNSLRSEDTAMYYCVRHESWFAYWGQGTLVTVSA
VL: DVLMTQTPLSLPVSLGEQVSISCRSSQTIVHTDGNIYLEWYLQNPGQSPRLLIYKISNRFSGVPDRFSGSGSGTDFTLKISRVEAEDLGIYYCFQASHVPYTFGGGTKLEIK
notes: also called 1B6 antibody; 1B6 clone
